Consider 14 sequences from the supplement of paper PMC9170038.

This data set concerns MS2 coat protein. Put plainly: apparent KD of MS2 coat protein; designed switch direction (-1 OFF switch, 1 ON switch): -1; higher = weaker reporter binding. A digest of the protocol: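 Designed RNA switches with common flanks were made on Illumina chips by stalled E. coli RNA polymerase. Titration with SNAP-549-labelled MS2 coat protein doubled from 0.7 or 1.5 nM up to 3 µM. Apparent KD is each design's median over clusters after curve-fitting normalised fluorescence.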

Where [1] appears, read: input ligand: microRNA oligo, concentration not stated.
The mark [2] stands for this setting: Eterna round: R95, input ligand: microRNA oligo, concentration not stated.

With “CCGGCUUAGGAGGAUAUAGGAGUCGAUAGACACCUAGAAGGCCUAACAUGAGGAUCACCCAUGUGACCUACCGG [Mod of Eli 28 - Jieux - Exclusion 6] (Eterna round: R97, puzzle: Exclusion 6)”, the “apparent KD of MS2 coat protein” value reads like this: (input ligand: FMN 200 uM) 132 nM; (input ligand: none) 28.6 nM.

With “CCGGGCCCGGGAGGAUAUACAUGAGGAUCACCCAUGUGGGCCCGGGCCCGCGGGCCCGGGCCCGUGUAGAAGGCCCGGGCCCGG [-64.8, -63.2 kcal, A 14%] (Eterna round: R96, puzzle: Exclusion NG 2)”, the “apparent KD of MS2 coat protein” value was 27.2 nM (input ligand: FMN 200 uM), 5.13 nM under setting [1] and 19.9 nM (input ligand: none).

Regarding “CCGGUGUGAGGAUAUCGUGGCUUGCAGGAAACGCUAAGUCGCGAGAAGGCACAUGAGGAUCACCCAUGUGUAUC [Eternabot (L2) Solution 54] (Eterna round: R97, puzzle: Exclusion 4)”, the “apparent KD of MS2 coat protein” value is 62.8 nM (input ligand: FMN 200 uM) and 24.7 nM (input ligand: none).

Regarding “CCGUCGGUAGGAUAUGCUAUGCAUGUCGGCGCUAUUUGAGGACAUGAGGAUCACCCAUGUAGAAGGGCCGAGGU [Eternabot (L1) Solution 55] (Eterna round: R97, puzzle: Exclusion 2)”, the “apparent KD of MS2 coat protein” value was determined as 22.7 nM (input ligand: FMN 200 uM) and 15.7 nM (input ligand: none).

On to “CCGUUGCUAGGAUAUACAUGAGGAUCACCCAUGUUUGAUCCAGCGAGUCAAUCCGCUUGUAGAAGGAGUUACAC [EX3 C.9] (Eterna round: R97, puzzle: Exclusion 3)”, for which the “apparent KD of MS2 coat protein” value (input ligand: FMN 200 uM) worked out at 25.3 nM and the “apparent KD of MS2 coat protein” value (input ligand: none) turned out to be 26.4 nM.

Regarding “CCUAUGUGAGGAUAUCACUGGUCUUCUCACUGGAUGACCAGUGAGAAGGCACAUGAGGAUCACCCAUGUCGGUG [Ex4 - 3 - 50] (puzzle: Exclusion 4)”, the “apparent KD of MS2 coat protein” value under setting [2] was 312 nM.

As to “CCUCAGUAAGGAUAUCAGCUUAAGGAGGUGGUAAAGAGAGCUGAGAAGGUACAUGAGGAUCACCCAUGUUAAAA [Zatite] (Eterna round: R96, puzzle: Exclusion 4)”, the “apparent KD of MS2 coat protein” value runs as follows: (input ligand: FMN 200 uM) 193 nM; under setting [1], 47.1 nM; (input ligand: none) 57.2 nM.

In the case of “CCUCAGUAAGGAUAUCAGCUUAAGGAGGUGGUAAAGAGAGCUGAGAAGGUACAUGAGGAUCACCCAUGUUAAAA [Zatite] (puzzle: Exclusion 4)”, the “apparent KD of MS2 coat protein” value turned out to be 64.4 nM (Eterna round: R95, input ligand: FMN 200 uM); 44.9 nM under setting [2]; 50.2 nM (Eterna round: R95, input ligand: none).

In the case of “CCUCAGUCACAGGAUAUGCUCAUCUAAUGAUGAGCAGAAGGGUGAACAUGAGGAUCACCCAUGUUUACCAGGGU [Omei Ex6 E5] (Eterna round: R97, puzzle: Exclusion 6)”, the “apparent KD of MS2 coat protein” value runs as follows: (input ligand: FMN 200 uM) 36 nM; (input ligand: none) 161 nM.

For the sequence “CCUCAGUGAGGAUAUGCUGCCGCCGUGAAUACACACCGCGCGUAGAAGGCACAUGAGGAUCACCCAUGUGAAGG [Eternabot (Original) Solution 9] (Eterna round: R97, puzzle: Exclusion 4)”, the “apparent KD of MS2 coat protein” value runs as follows: (input ligand: FMN 200 uM) 354 nM; (input ligand: none) 97.7 nM.

As for “CCUCAUAGUCAGGAUAUCAGCGCGUUCGGCAAAUGAGAAGGGACCACAUGAGGAUCACCCAUGUAAAACCAAAA [Beencema] (Eterna round: R97, puzzle: Exclusion 6)”, the “apparent KD of MS2 coat protein” value runs as follows: (input ligand: FMN 200 uM) 44.1 nM; (input ligand: none) 36 nM.

For the sequence “CCUCAUAUUUAGGAUAUGAUUGGUAAUUAUUAGUUAGAAGGAGAUACAUGAGGAUCACCCAUGUAAUAUUUAAA [-11.7, -11.3 kcal, 36% A] (Eterna round: R97, puzzle: Exclusion 6)”, the “apparent KD of MS2 coat protein” value by setting is: (input ligand: FMN 200 uM) 20.3 nM; (input ligand: none) 19.5 nM.

“CCUCCACAUGAGGAUCACCCAUGUCAGGAUAUCGCGCGCGCGUUUUCGGUCUUUCGCGCGAGAAGGGACGACUG (puzzle: Exclusion 1)”: under setting [2], the “apparent KD of MS2 coat protein” value is 29 nM.

As to “CCUCCACAUGAGGAUCACCCAUGUCAGGAUAUCGUGUGUGCUUUUUCGGUCUUUCGUGCGAGAAGGGACGUCUG (puzzle: Exclusion 1)”, the “apparent KD of MS2 coat protein” value under setting [2] was found to be 25.5 nM.
